The values below come from patent US20150087046A1 (SPIBER TECHNOLOGIES, published 2015).

The target of test [1] is T1, albumin from human blood plasma (human, UniProt P02768 25-609).
T1 construct: Not purified: the albumin source was diluted human blood plasma
In words: film incubated with plasma, acid elution, non-reducing SDS-PAGE. Here is the method: (§1) To evaluate the ability of ABD-NTCT films to bind albumin, human blood plasma was used as albumin source. Four films of ABD-NTCT and ABD-CT were pre-wetted with 150 μl of 1×PBS followed by incubation of 100 μl of human blood plasma (1:5 dilution) for 30 min at room temperature. After washing three times with 200 μl 1×PBS, bound albumin was eluted in 50 μl by lowering the pH to approximately 2.7 with elution buffer (i.e. 0.5 M acetic acid, 1 M urea, 100 mM NaCl), after which the eluted fractions were analyzed by non-reducing SDS-PAGE. Films of NTCT and CT were used as control material, and were treated in the same way.

Test [2] deals with biotinylated antigen sample (antigen recognised by scFv1, specific for Systemic Lupus Erythematosus). In words: microarray of spotted films, 10 nM biotinylated antigen, Alexa-647-streptavidin, spot intensity; reference: pure scFv1 control.
Test [3] deals with T1, albumin from human blood plasma. In words: film incubated with human blood plasma (1:5), acid elution, non-reducing SDS-PAGE. Here is the method:
Films of His₆-ABD-CT were casted in 96-well plates (Tissue culture plate, Suspension cells, 83.1835.500, Sarstedt) from 15 μl of 1 mg/ml soluble fusion protein per film. The films were then allowed to solidify over night (20° C., 35% relative humidity). The same procedure was followed for casting films of His₆-ABD-NTCT from 15 μl of 1 mg/ml protein solution.
as §1

T1 sequence (P02768 25-609 limits assumed): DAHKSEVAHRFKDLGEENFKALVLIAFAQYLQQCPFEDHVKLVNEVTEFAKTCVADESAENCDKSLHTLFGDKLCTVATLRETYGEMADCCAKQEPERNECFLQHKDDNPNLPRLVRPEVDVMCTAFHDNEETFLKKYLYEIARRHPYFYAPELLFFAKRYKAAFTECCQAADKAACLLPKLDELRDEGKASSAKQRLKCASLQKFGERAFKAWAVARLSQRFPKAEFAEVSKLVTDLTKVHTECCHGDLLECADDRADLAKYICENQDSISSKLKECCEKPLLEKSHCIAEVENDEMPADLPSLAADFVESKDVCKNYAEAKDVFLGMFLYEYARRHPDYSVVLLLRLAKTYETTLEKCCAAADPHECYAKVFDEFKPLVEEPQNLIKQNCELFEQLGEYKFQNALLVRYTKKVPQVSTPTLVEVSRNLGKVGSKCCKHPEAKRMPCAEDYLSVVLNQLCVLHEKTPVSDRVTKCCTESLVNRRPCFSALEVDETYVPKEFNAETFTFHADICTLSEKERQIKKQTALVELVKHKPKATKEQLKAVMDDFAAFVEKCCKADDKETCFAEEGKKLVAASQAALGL

B1: CT (control) film (other)
chain: SRLSSPSAVSRVSSAVSSLVSNGQVNMAALPNIISNISSSVSASAPGASGCEVIVQALLEVITALVQIVSSSSVGYINPSAVNQITNVVANAMAQVMG
For the molecule B1, in test [1], the binding result was “no binding (tested: human blood plasma (1:5 dilution))”.

B2: His6-scFv1-NTCT fusion protein (scFv)
chain: MGSSGHHHHHHMEVQLLESGGGLVQPGGSLRLSCAASGFTFSSYEMNWVRQAPGKGLEWVSGISGSGGFTYYADSVKGRFTISRDNSKNTLYLQMNSLRAEDTAMYYCAREGYQDAFDIWGQGTLVTVSSGGGGSGGGGSGGGGSQSVLTQPPSASGTPGQRVTISCTGSSSNIGAGYDVHWYQQLPGTAPKLLIYSNNQRPSGVPDRFSGSKSGTSASLAISGLRSEDEADYYCAAWDDSLSGPPWVFGGGTKLTVLGEQKLISEEDLSGSAAAGNSSHTTPWTNPGLAENFMNSFMQGLSSMPGFTASQLDDMSTIAQSMVQSIQSLAAQGRTSPNKLQALNMAFASSMAEIAASEEGGGSLSTKTSSIASAMSNAFLQTTGVVNQPFINEITQLVSMFAQAGMNDVSAGNSGIQGYGQSSASASAAASAASTVANSVSRLSSPSAVSRVSSAVSSLVSNGQVNMAALPNIISNISSSVSASAPGASGCEVIVQALLEVITALVQIVSSSSVGYINPSAVNQITNVVANAMAQVMG
B2 gave a fold increase of antigen recognition against the scFv1 control in test [2] of 25 times.

B3: His6-ABD-CT fusion protein (other)
chain: MGHHHHHHMLAEAKVLANRELDKYGVSDYYKNLINNAKTVEGVKALIDEILAALPGNSGIQGYGQSSASASAAASAASTVANSVSRLSSPSAVSRVSSAVSSLVSNGQVNMAALPNIISNISSSVSASAPGASGCEVIVQALLEVITALVQIVSSSSVGYINPSAVNQITNVVANAMAQVMG
notes: Tested as a solid film (polymer of the fusion protein) cast in 96-well plates from 15 ul of 1 mg/ml protein
For the molecule B3, the binding result in test [3] was “binds”.

B4: His6-ABD-NTCT fusion protein (other)
chain: MGSSGHHHHHHMLAEAKVLANRELDKYGVSDYYKNLINNAKTVEGVKALIDEILAALPGNSSHTTPWTNPGLAENFMNSFMQGLSSMPGFTASQLDDMSTIAQSMVQSIQSLAAQGRTSPNKLQALNMAFASSMAEIAASEEGGGSLSTKTSSIASAMSNAFLQTTGVVNQPFINEITQLVSMFAQAGMNDVSAGNSGIQGYGQSSASASAAASAASTVANSVSRLSSPSAVSRVSSAVSSLVSNGQVNMAALPNIISNISSSVSASAPGASGCEVIVQALLEVITALVQIVSSSSVGYINPSAVNQITNVVANAMAQVMG
notes: as for B3
B4: the binding result in test [3] was “binds”.

B5: NTCT (control) film (other)
chain: HHHHHHMSHTTPWTNPGLAENFMNSFMQGLSSMPGFTASQLDDMSTIAQSMVQSIQSLAAQGRTSPNKLQALNMAFASSMAEIAASEEGGGSLSTKTSSIASAMSNAFLQTTGVVNQPFINEITQLVSMFAQAGMNDVSASASAGASAAASAGAGSGNSGIQGYGQSSASASAAASAASTVANSVSRLSSPSAVSRVSSAVSSLVSNGQVNMAALPNIISNISSSVSASAPGASGCEVIVQALLEVITALVQIVSSSSVGYINPSAVNQITNVVANAMAQVMG
notes: also called His6NT-CT; His6NTCT
As to B5, the binding result in test [1] is on record as “no binding (tested: human blood plasma (1:5 dilution))”.
